In the RNAGym collection of RNA variant scans (doi:10.7554/elife.80360):

B1: Hairpin Ribozyme (parent)
chain: GUCCUCUUUCACGUGCGCGUGAAAGAGAGAAGUGAACCAGAGAAACACACGUUGUGGUAUAUUACCUGGUA

Variants of: B1
Assay: self-cleavage, relative activity (ratio to wild type); higher = more cleavage; co-transcriptional

In order of falling self-cleavage:
1. C3U G34C  1.03
2. C4G G34U  0.977
3. C3U G15C  0.727
4. C3U A35G  0.717
5. C3U A71G  0.653
6. C3U U52C  0.611
7. C3U A22G  0.603
8. C4G G34A  0.5
9. C3U U14A  0.495
10. C3U A22C  0.491
11. C4U U60C  0.48
12. C3U C16A  0.462
13. C4U A28G  0.458
14. C3U U14C  0.451
15. C3U U52G  0.446
16. C3U U60A  0.446
17. C3U G19A  0.443
18. C4U A71G  0.426
19. C3U G19C  0.373
20. C4U C16U  0.362
21. C4U C12U  0.357
22. C3U C12U  0.345
23. C3G C18U  0.341
24. C4U U70C  0.341
25. C3G C18G  0.34
26. C3G U52A  0.332
27. C3U A36U  0.33
28. C4U A24C  0.33
29. C4U G21C  0.328
30. C4U G19A  0.327
31. C4G A22G  0.326
32. C3G U58C  0.311
33. C4U U70A  0.299
34. U5A A11C  0.281
35. C3G U7G  0.281
36. C4A A61G  0.279
37. C4U A24G  0.272
38. C4U G42A  0.27
39. C3U A26U  0.27
40. C4U G17A  0.263
41. C4A C10U  0.261
42. C3G G13U  0.259
43. C4A U20G  0.259
44. C3U U58A  0.257
45. C3G G21U  0.252
46. C3G C66U  0.251
47. C4G A36G  0.248
48. C4A A28G  0.247
49. C4A C12G  0.245
50. C3G C4G  0.244
51. C4G A31G  0.238
52. C4A C16G  0.236
53. C4G C46U  0.235
54. C4A U33G  0.234
55. C4G A11U  0.232
56. C3U U62C  0.23
57. C4U G27C  0.229
58. C4U G57C  0.226
59. C4G U20A  0.225
60. C4A G17C  0.225
61. C4A G13C  0.223
62. C4U G21U  0.222
63. C4U A26G  0.221
64. C4A U52G  0.22
65. C4U G19C  0.219
66. C4U C66G  0.217
67. C4G C12G  0.216
68. C3U A49U  0.214
69. C4G A59U  0.212
70. C3U A59U  0.205
71. C4U U8G  0.204
72. C4U A45G  0.199
73. C4U U60A  0.199
74. C4U A35U  0.199
75. C4A U60A  0.197
76. C4G A22U  0.196
77. C4G C6A  0.195
78. C4A G32A  0.195
79. C4G G69C  0.193
80. C4U C6U  0.192
81. C3U C50U  0.187
82. C4U C66A  0.182
83. C4A U52C  0.182
84. C3U G56C  0.182
85. C4A G21U  0.178
86. C3G G54A  0.177
87. C4U G69U  0.177
88. C4U C10A  0.177
89. C4A G21C  0.175
90. C3U C50G  0.174
91. C4G U52C  0.174
92. C4A A61C  0.173
93. C4U U58A  0.172
94. C4A G68A  0.17
95. C3U G40A  0.169
96. C4A G57U  0.169
97. C4G A59G  0.169
98. C4A G32U  0.168
99. C3G U8C  0.166
100. C4A G56U  0.166
101. C4G G40C  0.164
102. C4G U9A  0.162
103. C4A C6G  0.161
104. C4U G56A  0.161
105. C4U G57U  0.161
106. C3U G69A  0.16
107. C4A C10A  0.16
108. C4G G25C  0.157
109. C3G U33G  0.156
110. C4A G32C  0.155
111. C4U G57A  0.155
112. C4G G32A  0.154
113. C3G A44C  0.153
114. C3U C46U  0.151
115. C4A A45G  0.151
116. C4G C48A  0.151
117. C4G A59C  0.15
118. C4A A45U  0.148
119. C3G A49G  0.148
120. C3G G25A  0.146
121. C4A C6U  0.143
122. C3G U33C  0.143
123. C3G G32U  0.141
124. C4A G68C  0.141
125. C4A A36C  0.138
126. C3G G25U  0.138
127. C4A A24C  0.137
128. C4A C65U  0.137
129. C4G A44C  0.136
130. C4G G68C  0.134
131. C3G C50U  0.13
132. C4U G40C  0.13
133. C4A U5A  0.125
134. C4G A39U  0.123
135. C4U A45C  0.122
136. C4A A61U  0.122
137. C4G A43C  0.121
138. C4U U67A  0.121
139. C4U G27U  0.118
140. C3U G29U  0.117
141. C4A U14C  0.115
142. C4G A11C  0.113
143. C4A U55G  0.107
144. C3U G29C  0.106
145. C3U C38A  0.106
146. C4U U63G  0.103
147. C4G C46A  0.102
148. U5A A39G  0.101
149. C3G U58G  0.0994
150. C3U G56U  0.0961
151. C3G A61G  0.0947
152. C3G U60G  0.0943
153. C3G A61U  0.0942
154. C4G U8C  0.0934
155. U5A A39U  0.0927
156. C4G C38A  0.0909
157. C4U C6G  0.0904
158. C3U C66A  0.0858
159. C4A A28C  0.0846
160. C4G G68U  0.0845
161. C4U C6A  0.0821
162. C4A A30C  0.0814
163. C3G G32C  0.0586
164. C4G A43U  0.053
165. C4U U5A  0.0527
166. C3G C50A  0.0499
167. C4A U14G  0.0473
